Source: US11325966

Columns and labels:
Experiment in all cases: cell-based or functional assay
[1] = biological target: HIV-1 Env of pseudovirus HIV-001428-2.42 (HIV-1)
[2] = biological target: HIV-1 Env of pseudovirus MS208.A1 (HIV-1)
[3] = biological target: BG505 (T332N) N392A (HIV-1)
[4] = biological target: HIV-1 Env of pseudovirus A07412M1.vrc12 (HIV-1)
[5] = biological target: 92BR020 N301A + N332A (HIV-1)
[6] = biological target: HIV-1 Env of pseudovirus Q842.d12 (HIV-1)
[7] = biological target: HIV-1 Env of pseudovirus R1166.c01 (HIV-1)
[8] = biological target: HIV-1 Env of pseudovirus BJOX010000.06.2 (HIV-1)
[9] = biological target: HIV-1 Env of pseudovirus Ce2060_G9 (HIV-1)
[10] = biological target: HIV-1 Env of pseudovirus CNE19 (HIV-1)
[11] = biological target: HIV-1 Env of pseudovirus CNE21 (HIV-1)
[12] = biological target: HIV-1 Env of pseudovirus T257-31 (HIV-1)
[13] = biological target: HIV-1 Env of pseudovirus 6480.v4.c25 (HIV-1)
[14] = biological target: HIV-1 Env of pseudovirus REJO4541.67 (HIV-1)
[15] = biological target: 92BR020 N136A + N332A (HIV-1)
[16] = biological target: HIV-1 Env of pseudovirus Q259.d2.17 (HIV-1)
92BR020 N136A (HIV-1) = biological target: 92BR020 N136A (HIV-1)
92BR020 (HIV-1) = biological target: 92BR020 (HIV-1)
[17] = biological target: HIV-1 Env of pseudovirus X1254_c3 (HIV-1)
[18] = biological target: HIV-1 Env of pseudovirus 231965.c01 (HIV-1)
[19] = biological target: HIV-1 Env of pseudovirus BJOX028000.10.3 (HIV-1)
[20] = biological target: HIV-1 Env of pseudovirus CNE53 (HIV-1)
[21] = biological target: HIV-1 Env of pseudovirus ZM247v1(Rev-) (HIV-1)
[22] = biological target: HIV-1 Env of pseudovirus 6535.3 (HIV-1)
[23] = biological target: HIV-1 Env of pseudovirus 191084 B7-19 (HIV-1)
92BR020 N156A (HIV-1) = biological target: 92BR020 N156A (HIV-1)
[24] = biological target: HIV-1 Env of pseudovirus 6041.v3.c23 (HIV-1)
[25] = biological target: HIV-1 Env of pseudovirus 1012_11_TC21_3257 (HIV-1)
[26] = biological target: HIV-1 Env of pseudovirus 620345.c01 (HIV-1)
92BR020 I326A (HIV-1) = biological target: 92BR020 I326A (HIV-1)
[27] = biological target: HIV-1 Env of pseudovirus 7030102001E5(Rev-) (HIV-1)
[28] = biological target: HIV-1 Env of pseudovirus C1080.c03 (HIV-1)
[29] = biological target: HIV-1 Env of pseudovirus Du172.17 (HIV-1)
[30] = biological target: HIV-1 Env of pseudovirus 6540.v4.c1 (HIV-1)
JR-CSF N392A (HIV-1) = JR-CSF N392A (HIV-1) (UniProt P20871)
[31] = biological target: HIV-1 Env of pseudovirus Ce0393_C3 (HIV-1)
[32] = biological target: HIV-1 Env of pseudovirus CNE17 (HIV-1)
[33] = biological target: HIV-1 Env of pseudovirus 3301.v1.c24 (HIV-1)
[34] = biological target: HIV-1 Env of pseudovirus Du422.1 (HIV-1)
[35] = biological target: HIV-1 Env of pseudovirus Q769.d22 (HIV-1)
[36] = biological target: HIV-1 Env of pseudovirus ZM214M.PL15 (HIV-1)
[37] = biological target: HIV-1 Env of pseudovirus Q461.e2 (HIV-1)

## PGT121 (antibody)
[1]
  IC50 in TZM-bl assay: 0.02 µg/mL
  IC80 in TZM-bl assay: 0.126 µg/mL
[2]
  IC50 in TZM-bl assay: > 10 µg/mL
  IC80 in TZM-bl assay: > 10 µg/mL
[3]
  IC50 in TZM-bl assay: 0.006 µg/mL
[4]
  IC50 in TZM-bl assay: 0.034 µg/mL
  IC80 in TZM-bl assay: 0.255 µg/mL
[5]
  IC50 in TZM-bl assay: > 1 µg/mL
[6]
  IC50 in TZM-bl assay: 0.01 µg/mL
  IC80 in TZM-bl assay: 0.037 µg/mL
[7]
  IC50 in TZM-bl assay: > 10 µg/mL
  IC80 in TZM-bl assay: > 10 µg/mL
[8]
  IC50 in TZM-bl assay: > 10 µg/mL
  IC80 in TZM-bl assay: > 10 µg/mL
[9]
  IC50 in TZM-bl assay: > 10 µg/mL
  IC80 in TZM-bl assay: > 10 µg/mL
[10]
  IC80 in TZM-bl assay: 0.083 µg/mL
[11]
  IC50 in TZM-bl assay: 0.009 µg/mL
  IC80 in TZM-bl assay: 0.031 µg/mL
[12]
  IC50 in TZM-bl assay: > 10 µg/mL
  IC80 in TZM-bl assay: > 10 µg/mL
[13]
  IC50 in TZM-bl assay: 0.008 µg/mL
[14]
  IC50 in TZM-bl assay: > 10 µg/mL
  IC80 in TZM-bl assay: > 10 µg/mL
[15]
  IC50 in TZM-bl assay: > 1 µg/mL
[16]
  IC50 in TZM-bl assay: 3.07 µg/mL
  IC80 in TZM-bl assay: > 10 µg/mL
92BR020 N136A (HIV-1)
  IC50 in TZM-bl assay: 0.002 µg/mL
92BR020 (HIV-1)
  IC50 in TZM-bl assay: 0.004 µg/mL
[17]
  IC80 in TZM-bl assay: 0.085 µg/mL
[18]
  IC50 in TZM-bl assay: > 10 µg/mL
  IC80 in TZM-bl assay: > 10 µg/mL
[19]
  IC50 in TZM-bl assay: > 10 µg/mL
  IC80 in TZM-bl assay: > 10 µg/mL
[20]
  IC50 in TZM-bl assay: 0.014 µg/mL
  IC80 in TZM-bl assay: 0.062 µg/mL
[21]
  IC50 in TZM-bl assay: 0.036 µg/mL
  IC80 in TZM-bl assay: 0.123 µg/mL
[22]
  IC50 in TZM-bl assay: 0.003 µg/mL
  IC80 in TZM-bl assay: 0.01 µg/mL
[23]
  IC50 in TZM-bl assay: 0.038 µg/mL
  IC80 in TZM-bl assay: 0.118 µg/mL
92BR020 N156A (HIV-1)
  IC50 in TZM-bl assay: 0.003 µg/mL
[24]
  IC50 in TZM-bl assay: > 10 µg/mL
  IC80 in TZM-bl assay: > 10 µg/mL
[25]
  IC50 in TZM-bl assay: 0.008 µg/mL
  IC80 in TZM-bl assay: 0.034 µg/mL
[26]
  IC50 in TZM-bl assay: > 10 µg/mL
  IC80 in TZM-bl assay: > 10 µg/mL
92BR020 I326A (HIV-1)
  IC50 in TZM-bl assay: 0.002 µg/mL
[27]
  IC80 in TZM-bl assay: 0.042 µg/mL
[28]
  IC50 in TZM-bl assay: > 10 µg/mL
  IC80 in TZM-bl assay: > 10 µg/mL
[29]
  IC50 in TZM-bl assay: 0.062 µg/mL
  IC80 in TZM-bl assay: 0.531 µg/mL
[30]
  IC50 in TZM-bl assay: > 10 µg/mL
  IC80 in TZM-bl assay: > 10 µg/mL
JR-CSF N392A (HIV-1)
  IC50 in TZM-bl assay: 0.017 µg/mL
[31]
  IC50 in TZM-bl assay: > 10 µg/mL
  IC80 in TZM-bl assay: > 10 µg/mL
[32]
  IC50 in TZM-bl assay: 3.96 µg/mL
  IC80 in TZM-bl assay: > 10 µg/mL
[33]
  IC50 in TZM-bl assay: 0.013 µg/mL
  IC80 in TZM-bl assay: 0.041 µg/mL
[34]
  IC50 in TZM-bl assay: 0.017 µg/mL
  IC80 in TZM-bl assay: 0.088 µg/mL
[35]
  IC50 in TZM-bl assay: > 10 µg/mL
  IC80 in TZM-bl assay: > 10 µg/mL
[36]
  IC50 in TZM-bl assay: 0.288 µg/mL
  IC80 in TZM-bl assay: 2.46 µg/mL
[37]
  IC50 in TZM-bl assay: > 10 µg/mL
  IC80 in TZM-bl assay: > 10 µg/mL

## BG18 IgG (354BG18) (antibody)
[1]
  IC50 in TZM-bl assay: 0.004 µg/mL
  IC80 in TZM-bl assay: 0.021 µg/mL
[2]
  IC50 in TZM-bl assay: > 30 µg/mL
  IC80 in TZM-bl assay: > 30 µg/mL
[4]
  IC50 in TZM-bl assay: 0.081 µg/mL
  IC80 in TZM-bl assay: 1.72 µg/mL
[6]
  IC50 in TZM-bl assay: 14 µg/mL
  IC80 in TZM-bl assay: > 30 µg/mL
[7]
  IC50 in TZM-bl assay: > 30 µg/mL
  IC80 in TZM-bl assay: > 30 µg/mL
[8]
  IC50 in TZM-bl assay: > 30 µg/mL
  IC80 in TZM-bl assay: > 30 µg/mL
[9]
  IC50 in TZM-bl assay: > 30 µg/mL
  IC80 in TZM-bl assay: > 30 µg/mL
[10]
  IC50 in TZM-bl assay: > 30 µg/mL
  IC80 in TZM-bl assay: > 30 µg/mL
[11]
  IC50 in TZM-bl assay: 0.002 µg/mL
  IC80 in TZM-bl assay: 0.007 µg/mL
[12]
  IC50 in TZM-bl assay: > 30 µg/mL
  IC80 in TZM-bl assay: > 30 µg/mL
[13]
  IC50 in TZM-bl assay: 0.016 µg/mL
  IC80 in TZM-bl assay: 0.116 µg/mL
[14]
  IC50 in TZM-bl assay: > 30 µg/mL
  IC80 in TZM-bl assay: > 30 µg/mL
[16]
  IC50 in TZM-bl assay: > 30 µg/mL
  IC80 in TZM-bl assay: > 30 µg/mL
[17]
  IC50 in TZM-bl assay: 0.004 µg/mL
  IC80 in TZM-bl assay: 0.012 µg/mL
[18]
  IC50 in TZM-bl assay: > 30 µg/mL
  IC80 in TZM-bl assay: > 30 µg/mL
[19]
  IC50 in TZM-bl assay: 0.474 µg/mL
  IC80 in TZM-bl assay: 14.9 µg/mL
[20]
  IC50 in TZM-bl assay: 0.003 µg/mL
  IC80 in TZM-bl assay: 0.011 µg/mL
[22]
  IC80 in TZM-bl assay: 0.005 µg/mL
[23]
  IC50 in TZM-bl assay: 0.011 µg/mL
  IC80 in TZM-bl assay: 0.043 µg/mL
[24]
  IC50 in TZM-bl assay: > 30 µg/mL
  IC80 in TZM-bl assay: > 30 µg/mL
[25]
  IC50 in TZM-bl assay: 0.003 µg/mL
  IC80 in TZM-bl assay: 0.012 µg/mL
[26]
  IC50 in TZM-bl assay: > 30 µg/mL
  IC80 in TZM-bl assay: > 30 µg/mL
[28]
  IC50 in TZM-bl assay: 5.37 µg/mL
  IC80 in TZM-bl assay: > 30 µg/mL
[29]
  IC50 in TZM-bl assay: > 30 µg/mL
  IC80 in TZM-bl assay: > 30 µg/mL
[30]
  IC50 in TZM-bl assay: 28.2 µg/mL
  IC80 in TZM-bl assay: > 30 µg/mL
[31]
  IC50 in TZM-bl assay: > 30 µg/mL
  IC80 in TZM-bl assay: > 30 µg/mL
[32]
  IC50 in TZM-bl assay: 0.02 µg/mL
  IC80 in TZM-bl assay: 0.109 µg/mL
[33]
  IC50 in TZM-bl assay: 0.025 µg/mL
  IC80 in TZM-bl assay: 0.082 µg/mL
[34]
  IC50 in TZM-bl assay: 0.009 µg/mL
  IC80 in TZM-bl assay: 0.057 µg/mL
[35]
  IC50 in TZM-bl assay: > 30 µg/mL
  IC80 in TZM-bl assay: > 30 µg/mL
[36]
  IC50 in TZM-bl assay: > 30 µg/mL
  IC80 in TZM-bl assay: > 30 µg/mL
[37]
  IC50 in TZM-bl assay: > 30 µg/mL
  IC80 in TZM-bl assay: > 30 µg/mL
